The nanobody polyreactivity screen of Harvey et al. (2022)

Experiment: yeast display, Sf9 membrane polyspecificity reagent, FACS + sequencing; frameworks hold sequencing errors
How it was run: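 Synthetic nanobody libraries on Saccharomyces cerevisiae BJ5465 were galactose-induced for 36–48 hours, stained 1 hour at 4 °C with 10% biotinylated, detergent-solubilized Sf9 membrane reagent and enriched on streptavidin microbeads. FACS then separated cells into low and high (top ~1%) gates by anti-HA (expression) and streptavidin (reagent binding) fluorescence. Genes were colony-PCR amplified, MiSeq 2 × 250 sequenced and CDR-length filtered. A clone's polyreactivity label is that of its gate of origin.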
In the case of “QVQLVESGGGLVQAGGSLRLSCAASGFTFYYYTMGWYRQAPGKERELVAAITWRGGSTNYADSVKGRFTISRDNAKNTVYLQMNSLKPEDTAVYYCAAVTYWFWPGMDYWGQGTQVTVSS”, the “polyreactivity (PSR sort gate)” value was “low polyreactivity”.
For “QVQLVESGGGLVQAGGSLRLSCAASGFTIDGYAMGGYRQAPGKERELVAAISGGGSTYYADSVKGRFTISRDNAKNTVYLQMNSLKPEDTAVYYCAAARITRGRRYDYWGQGTQVTVSS”, the “polyreactivity (PSR sort gate)” value was “high polyreactivity”.
In the case of “QVQLVESGGGLVQAGGSLRLSCAASGFTIDNYAMGWYRHSPGKEMEVVAAINWSGDRMYYADSVKGRFTFSRDNAKNTVYLQMNSLKPEDTAVYYCAAPASRSQGPFPGYDYWGQGTQVTVSS”, the “polyreactivity (PSR sort gate)” value was “high polyreactivity”.
With “QVQLVESGGGLVQAGGSLRLSCAASGFTIDSNVMGWYRQAPGKDRELVAAITGDDTTYYADSVKGRFTISRDNAKNTVYLQMNSLKPEDTAVYYCAADETESLEYTAYDMYYWGQGTQVTVSS” the “polyreactivity (PSR sort gate)” value was “low polyreactivity”.
For “QVQLVESGGGLVQAGGSLRLSCAASGFTIESNAMGWYRQAPGKERELVAAISASGDSTYYADSVKGRFTISRDNAKNTVYLQMNSLKPEDTAVYYCAADRYYGGWRFDHWGQGTQVTVSS”, the “polyreactivity (PSR sort gate)” value was “low polyreactivity”.
For “QVQLVESGGGLVQAGGSLRLSCAASGFTIIYNAMGWYSQAPGKERELVAAISSGGSTYYADSVKGRFTISRDNAKNTVYFQMNSLKPVDTAVYYCNADVGFFNSGYEDSDYWGQGTQVTVSS”, the “polyreactivity (PSR sort gate)” value was “low polyreactivity”.
In the case of “QVQLVESGGGLVQAGGSLRLSCAASGFTINGNAMGWYRQAPGKERELVAAITWRGGSTYYADSVKGRFTISRDNAKNTVYLQMNSLKPEDTAVYYCNVEGWYDYDYWGQGTQVTVSS”, the “polyreactivity (PSR sort gate)” value was “high polyreactivity”.
In the case of “QVQLVESGGGLVQAGGSLRLSCAASGFTININDMRGYRQAPGIDTDLVAALSWNVGNRYYADSVKGRFTISRDNAKNTVYLQMKSLKPEDTAVYYCAADRYIRWVEFDYWGQGTQVTVSS”, the “polyreactivity (PSR sort gate)” value was “low polyreactivity”.
With “QVQLVESGGGLVQAGGSLRLSCAASGFTIRAYVMGSYRQAPGKEREFVADISYRGGGTNYADSVKGRFTISRDNAKNTVYLQMNSLKPEDTAVYYCNARSGSSKSGYYYWGQGTQVTVSS” the “polyreactivity (PSR sort gate)” value was “high polyreactivity”.
With “QVQLVESGGGLVQAGGSLRLSCAASGFTIRSYVMGWYRQAPGKEREFVAAISYRGGGTNYADSVKGRFTISRDNAKNTVYLQMNSLKPEDTAVYYCNALVYDQYGYYHYYLRNGGYYWGQGTQVTVSS” the “polyreactivity (PSR sort gate)” value was “high polyreactivity”.
With “QVQLVESGGGLVQAGGSLRLSCAASGFTIRYYALGWYRQAPGKERELVAAISRGGSTTYADSVKGRFTISRDNAKNTVYLQMNSLKPEDTAVDYCAVYSKWSVTYDYWGQGTQVTVSS” the “polyreactivity (PSR sort gate)” value was “high polyreactivity”.
For “QVQLVESGGGLVQAGGSLRLSCAASGFTISQYAMGWYRQAPGKERELVAVISINGGSTYYADSVKGRFTISRDNAKNTVYLEKNSLKPEDTAVYYCAADDTDSEDYGYDYWGQGTQVTVSS”, the “polyreactivity (PSR sort gate)” value was “low polyreactivity”.
With “QVQLVESGGGLVQAGGSLRLSCAASGFTITKYAMGWYRQAPGKERALVAAISRSAGSTYYADSVKGRFTISRDNAKHTVYLQMNSLKPEDTAVYYCNAYPKGRYAAAFPGMDYWGQGTQVTVSS” the “polyreactivity (PSR sort gate)” value was “high polyreactivity”.
With “QVQLVESGGGLVQAGGSLRLSCAASGFTIVYYAMGWYRQAPGKERELVAAISATGGRTYYADSVKGRFTISRDNAKNTVYLQMNSLKPEDTAVYYCAVGLSGASSGMGYWGQGTQVTVSS” the “polyreactivity (PSR sort gate)” value was “high polyreactivity”.
With “QVQLVESGGGLVQAGGSLRLSCAASGFTIWRYAMGWYRQAPGKERELVAAISRGGSTNYADSVKGRFTISRDNAKNTVYLQMNSLKPEDTAVYYCAASVQYRRLKKFYYWGQGTQVTVSS” the “polyreactivity (PSR sort gate)” value was “high polyreactivity”.
In the case of “QVQLVESGGGLVQAGGSLRLSCAASGFTIYHNAMGWYRQAPGKERELVAAISSSGDSTYYADSVKGRFTISRDNAKNTVYLQMNSLKPEDTAVYYCNDYFYYLSLYYYYWFNYDYWGQGTQVTVSS”, the “polyreactivity (PSR sort gate)” value was “low polyreactivity”.
